For experiment [1], the target named is T1, human CCR5 (human, UniProt P51681 1-352).
T1 construct: whole, on cells; transiently expressed on HEK293 cells
In words: flow cytometry, HEK293 with N-term FLAG-tagged human CCR5. An excerpt:
(§1) FIGS. 4A-4F depicts the binding data of hu.Ab3.H1L1 (FIG. 4A), hu.Ab4.H1L1 (FIG. 4B), and hu.Ab5.H1L1 (FIG. 4C), as well as the commercial anti-CCR8 mAbs murine anti-human CCR8 mAb 433H (BD Biosciences) (FIG. 4D), and murine anti-human CCR8 mAb L263G8 (Biolegend) (FIG. 4E), and the humanized anti-human Yoshida anti-CCR8 mAb (FIG. 4F), to HEK293 cells that were transiently transfected with N-term FLAG-tagged plasmids encoding for human GPCRs (CCR2, CCR3, CCR4, CCR5, CCR8, CXCR4, ACKR2, and ACKR4), hCCR8 constructs, or with a mock construct using transIT X2 (reagent:DNA=3:1).
(§2) To confirm the selectivity to CCR8, the binding of hu.Ab3.H1L1, hu.Ab4.H1L1, and hu.Ab5.H1L1, as well as the Yoshida humanized anti-human CCR8, murine anti-human CCR8 mAb L263G8 (Biolegend, Commercial Ab) and murine anti-human CCR8 mAb 433H (BD Biosciences, Commercial Ab), were characterized by flow cytometry on HEK293 cells that were transiently transfected with plasmids encoding for FLAG-tagged other related human GPCRs (CCR2-5, CXCR4, ACKR2, and ACKR4). Cell surface expression of each GPCR was confirmed by staining with an anti-FLAG antibody control. […]

In experiment [2] the target is T2, human CCR3 (human, UniProt P51677 1-355).
T2 construct: whole, on cells; transiently expressed on HEK293 cells
T2 sequence (looked up): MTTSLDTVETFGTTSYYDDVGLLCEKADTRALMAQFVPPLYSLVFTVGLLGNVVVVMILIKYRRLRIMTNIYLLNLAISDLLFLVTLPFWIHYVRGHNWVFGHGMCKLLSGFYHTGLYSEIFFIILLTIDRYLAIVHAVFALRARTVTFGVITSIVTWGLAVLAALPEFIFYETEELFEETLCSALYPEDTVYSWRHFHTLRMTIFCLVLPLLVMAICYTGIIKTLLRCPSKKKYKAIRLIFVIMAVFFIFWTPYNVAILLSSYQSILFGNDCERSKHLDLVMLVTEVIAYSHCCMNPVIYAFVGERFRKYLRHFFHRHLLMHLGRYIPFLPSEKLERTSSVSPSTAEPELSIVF
Briefly: flow cytometry, HEK293 with N-term FLAG-tagged human CCR3.
From the text: as §1, §2

The target in experiment [3] is T3, human CXCR4 (human, UniProt P61073 1-352).
T3 construct: whole, on cells; transiently expressed on HEK293 cells
T3 sequence (P61073 whole entry): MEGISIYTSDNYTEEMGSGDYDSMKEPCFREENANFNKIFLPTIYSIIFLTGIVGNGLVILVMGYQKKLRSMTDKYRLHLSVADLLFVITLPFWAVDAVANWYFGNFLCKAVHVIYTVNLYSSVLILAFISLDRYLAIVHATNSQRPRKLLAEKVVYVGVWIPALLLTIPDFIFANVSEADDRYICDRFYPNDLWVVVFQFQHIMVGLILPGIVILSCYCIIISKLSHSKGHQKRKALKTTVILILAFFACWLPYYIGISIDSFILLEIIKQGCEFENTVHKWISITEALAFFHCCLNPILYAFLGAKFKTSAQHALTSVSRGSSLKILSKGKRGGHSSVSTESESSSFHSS
In words: flow cytometry, HEK293 with N-term FLAG-tagged human CXCR4.
From the text: as §1, §2

The target in experiment [4] is T4, human ACKR4 (human, UniProt Q9NPB9 1-350).
T4 construct: whole, on cells; transiently expressed on HEK293 cells
T4 sequence (looked up): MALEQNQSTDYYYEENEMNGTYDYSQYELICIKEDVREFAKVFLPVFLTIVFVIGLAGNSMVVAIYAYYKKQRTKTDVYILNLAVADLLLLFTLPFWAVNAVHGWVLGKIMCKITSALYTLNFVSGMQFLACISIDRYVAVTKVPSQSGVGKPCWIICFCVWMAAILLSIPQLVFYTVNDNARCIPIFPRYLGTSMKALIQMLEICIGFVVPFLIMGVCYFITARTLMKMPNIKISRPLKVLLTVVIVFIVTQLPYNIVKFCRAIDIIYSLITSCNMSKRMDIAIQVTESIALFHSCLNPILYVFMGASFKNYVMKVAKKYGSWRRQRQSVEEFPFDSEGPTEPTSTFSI
In words: flow cytometry, HEK293 with N-term FLAG-tagged human ACKR4.
From the text: as §1, §2

The target of experiment [5] is T2, human CCR3. In words: flow cytometry, HEK293 with N-term FLAG-tagged human CCR3, procedure of FIG. 4. An excerpt: (§3) To confirm the selectivity to CCR8, the binding of hu.Ab3.H1L1, hu.Ab4.H1L1, and hu.Ab5.H1L1, as well as the Yoshida humanized anti-human CCR8, murine anti-human CCR8 mAb L263G8 (Biolegend, Commercial Ab) and murine anti-human CCR8 mAb 433H (BD Biosciences, Commercial Ab), were characterized by flow cytometry on HEK293 cells that were transiently transfected with plasmids encoding for FLAG-tagged other related human GPCRs (CCR2-5, CXCR4, ACKR2, and ACKR4). Cell surface expression of each GPCR was confirmed by staining with an anti-FLAG antibody control. In particular, HEK293 cells were transfected with N-term FLAG-tagged human CCR2, CCR3, CCR4, CCR5, CXCR4, ACKR2, ACKR4, hCCR8 constructs, or with a Mock construct using transIT X2 (reagent:DNA=3:1) for 24 hours, and surface stained with various anti-hCCR8 monoclonal antibodies at 5 ug/ml, or rabbit anti-Flag pAb (Sigma) followed by AF647-anti-hIgG or AF647-anti-RbIgG respectively. Antibodies hu.Ab4.H1L1, and hu.Ab5.H1L1, only stained the hCCR8-containing cells, confirming their specificity to hCCR8. […] Thus, the CCR8 selective hu.Ab4.H1L1 and hu.Ab5.H1L1 antibodies with the best ADCC activities were carried forward.
(§4) To reconfirm that the Ab4 and Ab5 variants remained selective to CCR8 compared to the corresponding HIL1 variants, binding was analyzed by flow cytometry following the procedure as described for FIG. 4A and FIG. 4B. […]

The target of experiment [6] is T5, GST-FcgR3a.F158 (UniProt P08637 17-208, limits assumed).
T5 construct: Captured by anti-GST antibody on ELISA plate; also called FcgR3a.F158 protein; Fcgamma RIIIa F158; not shown: GST tag
T5 sequence (P08637 17-208 limits assumed): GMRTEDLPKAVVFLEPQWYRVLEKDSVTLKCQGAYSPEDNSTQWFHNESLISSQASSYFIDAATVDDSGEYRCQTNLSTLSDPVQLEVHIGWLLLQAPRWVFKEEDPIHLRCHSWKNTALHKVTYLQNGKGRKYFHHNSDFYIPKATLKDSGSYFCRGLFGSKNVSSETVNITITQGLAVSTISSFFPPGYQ
In words: ELISA, GST-FcgR3a.F158 captured by anti-GST antibody. How it is done:
The binding of fucosylated and afucosylated variants of hu.Ab5.H13L1 and hu.Ab4.H12L3 to both FcgR3a proteins by ELISA was studied. Briefly, an anti-GST antibody was coated on Nunc Maxisorp plates. GST-FcgR3a.V158 and GST-FcgR3a.F158 were captured at 500 ng/mL. Plates were then washed and then serially diluted anti-CCR8 antibodies starting at 100 ug/mL were incubated on the plate for 1 hour at room temperature. Plates were washed and bound antibody was detected by a HRP-conjugated anti-human IgG secondary antibody. Absorbance at 450 nm was measured by a plate reader. The data were fitted using a 4-parameter logistic curve in Softmax Pro.

In experiment [7] the target is T1, human CCR5. Briefly: flow cytometry, HEK293 with N-term FLAG-tagged human CCR5, procedure of FIG. 4.
From the text: as §3, §4

T1 sequence (P51681 whole entry): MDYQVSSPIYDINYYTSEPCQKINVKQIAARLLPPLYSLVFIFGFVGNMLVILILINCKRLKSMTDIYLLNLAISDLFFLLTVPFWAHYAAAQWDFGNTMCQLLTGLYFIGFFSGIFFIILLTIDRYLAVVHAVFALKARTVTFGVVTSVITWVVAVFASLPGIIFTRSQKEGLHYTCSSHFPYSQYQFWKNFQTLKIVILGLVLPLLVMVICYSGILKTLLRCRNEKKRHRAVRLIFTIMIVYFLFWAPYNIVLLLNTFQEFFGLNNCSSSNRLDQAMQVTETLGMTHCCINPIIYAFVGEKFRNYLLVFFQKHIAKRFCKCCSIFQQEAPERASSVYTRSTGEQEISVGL

B1: hu.Ab4.H1L1 (antibody, human IgG1, kappa)
heavy: not shown
light: DYQMTQSPSSLSASVGDRVTITCQASQSISSYLSWYQQKPGKRPKLLIYKASTLASGVPSRFSGSGSGTDFTLTISSLQPEDFATYYCQQGYTSSNIDNIFGGGTKVEIKRTVAAPSVFIFPPSDEQLKSGTASVVCLLNNFYPREAKVQWKVDNALQSGNSQESVTEQDSKDSTYSLSSTLTLSKADYEKHKVYACEVTHQGLSSPVTKSFNRGEC
notes: also called hu.Ab4.H1Ll
On to B1, for which the binding result in experiment [1], in experiment [2], in experiment [3] and in experiment [4] was “no binding (tested: 5 ug/ml)” in each case.

B2: hu.Ab4.H12L3 (antibody, human IgG1, kappa)
heavy: not shown
light: DYQMTQSPSSLSASVGDRVTITCQASQSISSYLSWYQQKPGKAPKLLIYKASTLASGVPSRFSGSGSGTDFTLTISSLQPEDFATYYCQQGYTSSNIDNIFGGGTKVEIKRTVAAPSVFIFPPSDEQLKSGTASVVCLLNNFYPREAKVQWKVDNALQSGNSQESVTEQDSKDSTYSLSSTLTLSKADYEKHKVYACEVTHQGLSSPVTKSFNRGEC
notes: fucosylated human IgG1; also called huCCR8-Ab4.H12L3.hIgG1; Ab4 variant
For the molecule B2, the binding result in experiment [5] and in experiment [7] was “no binding (tested: 5 ug/ml)” throughout. In experiment [6], the EC50 was found to be 3.74 µg/mL.

B3: hu.Ab5.H1L1 (antibody, human IgG1, kappa)
heavy: not shown
light: DIQVTQSPSSLSASVGDRVTITCQASENIANALAWYQQKPGKPPKFLIYGASNLASGVPSRFSGSGSGTDFTFTISSLQPEDIATYYCQQAYYGNSFVEGTFGGGTKVEIKRTVAAPSVFIFPPSDEQLKSGTASVVCLLNNFYPREAKVQWKVDNALQSGNSQESVTEQDSKDSTYSLSSTLTLSKADYEKHKVYACEVTHQGLSSPVTKSFNRGEC
In the case of B3, the binding result in experiment [1], in experiment [2], in experiment [3] and in experiment [4] was “no binding (tested: 5 ug/ml)” each time.

B4: hu.Ab5.H13L1 (antibody, human IgG1, kappa)
heavy: not shown
light: DIQVTQSPSSLSASVGDRVTITCQASENIANALAWYQQKPGKPPKFLIYGASNLASGVPSRFSGSGSGTDFTFTISSLQPEDIATYYCQQAYYGNSFVEGTFGGGTKVEIKRTVAAPSVFIFPPSDEQLKSGTASVVCLLNNFYPREAKVQWKVDNALQSGNSQESVTEQDSKDSTYSLSSTLTLSKADYEKHKVYACEVTHQGLSSPVTKSFNRGEC
notes: fucosylated human IgG1; also called Ab5 variant
Consider B4, for which the binding result in experiment [5] and in experiment [7] was “no binding (tested: 5 ug/ml)” in each case. Further, the EC50 in experiment [6] was found to be 4.11 µg/mL.

The values above are taken from patent publication US20230049152A1 (Genentech, published 2023).
